From patent US5459256A, “Lipophilic, aminohydrolase-activated prodrugs” (priority 1991, dated 1995)

Legend:
Assay in all cases: purified protein, by the assay type
Details in all cases: other: pH 7.4 and 37° C.
[1] = substrate: CNc1ncnc2c1ncn2[C@@H]1O[C@H](CO)C[C@@H]1F
Description: (§1) Deamination of dideoxyadenosine analogues by adenosine deaminase. Hydrolysis kinetics and 2'-F-dd-ara-I formation during the incubation of 50 μM N^6 -CH3 -2'-F-dd-ara-A (1f) with 0.7 units/mL of adenosine deaminase at 37° C. A unit of adenosine deaminase is the amount of enzyme which hydrolyzes a standard substrate (e.g., adenosine) at the rate of 1.0 μmole/min at 25° C. and pH 7.5. […] Insert: Adenosine deaminase hydrolysis kinetics for 50 μM ddA and 2'-F-dd-ara-A. The hydrolysis curve for ddA has been extrapolated from kinetics obtained with 0.07 units/mL of adenosine deaminase under identical conditions.
(§2) A 50 μl aliquot of a 10 mg/ml suspension of adenosine deaminase (adenosine aminohydrolase, EC 3.5.4.4) from calf intestinal mucosa was centrifuged at 600×g for 3 min. The residue remaining after removal of the (NH4)2 SO4 supernatant was dissolved in 0.5 ml pH 7.4 tris(hydroxymethyl)-aminomethane (Tris) buffer to give an enzyme solution of 1 mg/ml (274 units/ml). […]
(§3) Enzymatic Deamination of Adenosine Analogues. […] The decrease in substrate concentration was monitored by HPLC analysis of the resultant ultrafiltrate (see below). The ability of 2'-deoxycoformycin to inhibit deamination under the above conditions was evaluated by adding 2 μL of 1.0 mM inhibitor to diluted substrate solutions at the time of equilibration. […] Initial hydrolysis rates for each substrate concentration were measured through linear least-squares curve fitting of the concentration versus time data for reaction of the first 10% of substrate. KM and vmax values for each substrate were then determined from a graphical lineweaver-Burke plot of these initial rates (FIG. 1). […]
(§4) Concentrations of dideoxynucleosides were measured by the HPLC analysis of 100 μL aliquots of ultrafiltered samples. […] Dideoxynucleosides and deamination products were detected at the appropriate wavelength of maximum absorption with a Gilson 116 variable wavelength detector. […] Peak areas and peak heights were measured simultaneously on a Spectra-Physics SP4200 computing integrator.

[2] = substrate: OC[C@@H]1C[C@H](F)[C@H](n2cnc3c(Cl)ncnc32)O1
Description: as §1, §2, §3, §4

[3] = substrate: Nc1ncnc2c1ncn2[C@H]1CC[C@@H](CO)O1
Description: as §1, §2, §3, §4

[4] = substrate: Nc1ncnc2c1ncn2[C@@H]1O[C@H](CO)C[C@@H]1F

B1: adenosine deaminase (adenosine aminohydrolase, EC 3.5.4.4) (Bos taurus) (protein)
chain: MAQTPAFNKPKVELHVHLDGAIKPETILYYGRKRGIALPADTPEELQNIIGMDKPLSLPEFLAKFDYYMPAIAGCREAVKRIAYEFVEMKAKDGVVYVEVRYSPHLLANSKVEPIPWNQAEGDLTPDEVVSLVNQGLQEGERDFGVKVRSILCCMRHQPSWSSEVVELCKKYREQTVVAIDLAGDETIEGSSLFPGHVKAYAEAVKSGVHRTVHAGEVGSANVVKEAVDTLKTERLGHGYHTLEDATLYNRLRQENMHFEVCPWSSYLTGAWKPDTEHPVVRFKNDQVNYSLNTDDPLIFKSTLDTDYQMTKNEMGFTEEEFKRLNINAAKSSFLPEDEKKELLDLLYKAYGMPSPASAEQCL
For B1, the Km [1] was 110 µM, the Km [2] was 7500 µM and the Km [3] was 14 µM. For the same protein, the Km [4] was 330 µM.
